This note sets out measurements from PMC4219604, “C-terminal in Sp1-like artificial zinc-finger proteins plays crucial roles in determining their DNA binding affinity”.

For this data set, the target named is 7ZFP Active-A (artificial (Sp1-derived zinc fingers)). Kind of data set: EMSA; EMSA: 25 mM HEPES, 100 mM KCl, 1 mM EDTA, 10 mM MgCl2, 0.1% NP40, 1% glycerol, 1 mM DTT; 30 min on ice; pH not stated. The following applies: protein: recombinant; tags: C-terminal 6xHis; label: biotin; blunt.
7ZFP Active-A (artificial (Sp1-derived zinc fingers)), sequence (chain, as listed by the source): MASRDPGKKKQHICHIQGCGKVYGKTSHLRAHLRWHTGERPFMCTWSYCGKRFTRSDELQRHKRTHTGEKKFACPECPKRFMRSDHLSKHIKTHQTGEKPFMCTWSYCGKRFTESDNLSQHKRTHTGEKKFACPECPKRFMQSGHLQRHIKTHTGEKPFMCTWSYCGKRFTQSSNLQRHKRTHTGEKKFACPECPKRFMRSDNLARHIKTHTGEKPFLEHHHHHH

B1: Probe-1 (p16 promoter) (dsDNA)
DNA 1: AAGGTTGTATCGCGGAGGAAGGAAACGGGGCGGGGGCGGATTTCT
DNA 2: AGAAATCCGCCCCCGCCCCGTTTCCTTCCTCCGCGATACAACCTT
B1: the binding result is recorded as “binds”.
